What is called EC50 is the concentration that produces a half-maximal response. A higher EC50 goes with a less potent agent.

T1: human β-Klotho extracellular domain (aa1–992) fused with a 6 × His tag at the C-terminus (human, UniProt Q86Z14 1-992, biotin (EZ-Link Sulfo-NHS-LC-Biotin) in the bio-layer interferometry)
T1 construct: signal peptide in the construct; human β-Klotho extracellular domain, aa1–992 of the full-length protein aa1-1044 (NM_175737); also called β-Klotho ECD 6 × His; soluble human β-Klotho; source: CHO-EBNA1, transiently transfected, conditioned medium; not shown: His6, C-terminal, kept
T1 sequence (looked up): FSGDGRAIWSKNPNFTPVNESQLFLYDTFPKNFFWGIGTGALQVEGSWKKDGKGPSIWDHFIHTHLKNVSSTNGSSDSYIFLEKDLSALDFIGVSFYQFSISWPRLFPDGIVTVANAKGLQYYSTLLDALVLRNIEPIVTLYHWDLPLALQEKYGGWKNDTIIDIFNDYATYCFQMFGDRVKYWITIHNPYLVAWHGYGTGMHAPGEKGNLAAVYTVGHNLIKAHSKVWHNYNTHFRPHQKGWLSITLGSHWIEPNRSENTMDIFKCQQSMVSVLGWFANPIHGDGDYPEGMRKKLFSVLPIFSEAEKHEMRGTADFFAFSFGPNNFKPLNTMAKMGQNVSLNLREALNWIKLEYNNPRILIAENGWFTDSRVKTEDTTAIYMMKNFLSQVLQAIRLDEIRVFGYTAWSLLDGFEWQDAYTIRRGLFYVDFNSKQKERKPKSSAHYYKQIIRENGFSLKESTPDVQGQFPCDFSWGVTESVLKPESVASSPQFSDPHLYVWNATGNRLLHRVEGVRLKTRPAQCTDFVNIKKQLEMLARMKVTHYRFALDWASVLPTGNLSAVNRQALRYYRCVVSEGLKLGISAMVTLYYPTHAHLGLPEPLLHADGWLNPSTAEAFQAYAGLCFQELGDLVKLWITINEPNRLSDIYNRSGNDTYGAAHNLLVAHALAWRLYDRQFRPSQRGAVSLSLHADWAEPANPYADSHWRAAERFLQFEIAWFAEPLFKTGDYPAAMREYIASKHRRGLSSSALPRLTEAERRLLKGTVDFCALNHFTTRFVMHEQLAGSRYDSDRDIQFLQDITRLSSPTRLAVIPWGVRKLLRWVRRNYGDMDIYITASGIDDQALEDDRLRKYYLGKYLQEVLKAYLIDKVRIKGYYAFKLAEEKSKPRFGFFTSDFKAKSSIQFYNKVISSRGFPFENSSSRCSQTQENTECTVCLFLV

B1: mature human FGF21 polypeptide fused with the human Fc fragment at the N-terminus (Fc-FGF21), wild type (Fc fusion, UniProt Q9NSA1 29-209, looked up)
chain: HPIPDSSPLLQFGGQVRQRYLYTDDAQQTEAHLEIREDGTVGGAADQSPESLLQLKALKPGVIQILGVKTSRFLCQRPDGALYGSLHFDPEACSFRELLLEDGYNVYQSEAHGLPLHLPGNKSPHRDPAPRGPARFLPLPGLPPALPEPPGILAPQPPDVGSSDPLSMVGPSQGRSPSYAS
notes: human FGF21, mature polypeptide (NM_019113); also called WT Fc-FGF21; source: HEK293-EBNA1, transiently transfected, purified (protein A, MabSelect SuRe); not shown: Fc (human), N-terminal, kept
B2: mature human FGF21 (ligand, UniProt Q9NSA1 29-209, looked up)
chain: HPIPDSSPLLQFGGQVRQRYLYTDDAQQTEAHLEIREDGTVGGAADQSPESLLQLKALKPGVIQILGVKTSRFLCQRPDGALYGSLHFDPEACSFRELLLEDGYNVYQSEAHGLPLHLPGNKSPHRDPAPRGPARFLPLPGLPPALPEPPGILAPQPPDVGSSDPLSMVGPSQGRSPSYAS
modifications: biotin (EZ-Link Sulfo-NHS-LC-Biotin) in the solid-phase binding assay; biotinylated as the labelled ligand in AlphaScreen
notes: human FGF21, mature protein; also called native FGF21
B3: Fc-FGF21, 192D to arginine (Fc fusion, human, UniProt Q9NSA1 29-209, looked up)
chain: HPIPDSSPLLQFGGQVRQRYLYTDDAQQTEAHLEIREDGTVGGAADQSPESLLQLKALKPGVIQILGVKTSRFLCQRPDGALYGSLHFDPEACSFRELLLEDGYNVYQSEAHGLPLHLPGNKSPHRDPAPRGPARFLPLPGLPPALPEPPGILAPQPPDVGSSRPLSMVGPSQGRSPSYAS
notes: human FGF21, mature polypeptide (NM_019113); also called D192R; source: HEK293-EBNA1, transiently transfected, purified (protein A); not shown: Fc (human), N-terminal, kept
B4: Fc-FGF21, 193P to alanine (Fc fusion, human, UniProt Q9NSA1 29-209, looked up)
chain: HPIPDSSPLLQFGGQVRQRYLYTDDAQQTEAHLEIREDGTVGGAADQSPESLLQLKALKPGVIQILGVKTSRFLCQRPDGALYGSLHFDPEACSFRELLLEDGYNVYQSEAHGLPLHLPGNKSPHRDPAPRGPARFLPLPGLPPALPEPPGILAPQPPDVGSSDALSMVGPSQGRSPSYAS
notes: human FGF21, mature polypeptide (NM_019113); also called P193A; source: HEK293-EBNA1, transiently transfected, purified (protein A); not shown: Fc (human), N-terminal, kept
B5: Fc-FGF21, 196M to alanine (Fc fusion, human, UniProt Q9NSA1 29-209, looked up)
chain: HPIPDSSPLLQFGGQVRQRYLYTDDAQQTEAHLEIREDGTVGGAADQSPESLLQLKALKPGVIQILGVKTSRFLCQRPDGALYGSLHFDPEACSFRELLLEDGYNVYQSEAHGLPLHLPGNKSPHRDPAPRGPARFLPLPGLPPALPEPPGILAPQPPDVGSSDPLSAVGPSQGRSPSYAS
notes: human FGF21, mature polypeptide (NM_019113); also called M196A; source: HEK293-EBNA1, transiently transfected, purified (protein A); not shown: Fc (human), N-terminal, kept
B6: Fc-FGF21, 196M to arginine (Fc fusion, human, UniProt Q9NSA1 29-209, looked up)
chain: HPIPDSSPLLQFGGQVRQRYLYTDDAQQTEAHLEIREDGTVGGAADQSPESLLQLKALKPGVIQILGVKTSRFLCQRPDGALYGSLHFDPEACSFRELLLEDGYNVYQSEAHGLPLHLPGNKSPHRDPAPRGPARFLPLPGLPPALPEPPGILAPQPPDVGSSDPLSRVGPSQGRSPSYAS
notes: human FGF21, mature polypeptide (NM_019113); also called M196R; source: HEK293-EBNA1, transiently transfected, purified (protein A); not shown: Fc (human), N-terminal, kept
B7: Fc-FGF21, 194L to alanine (Fc fusion, human, UniProt Q9NSA1 29-209, looked up)
chain: HPIPDSSPLLQFGGQVRQRYLYTDDAQQTEAHLEIREDGTVGGAADQSPESLLQLKALKPGVIQILGVKTSRFLCQRPDGALYGSLHFDPEACSFRELLLEDGYNVYQSEAHGLPLHLPGNKSPHRDPAPRGPARFLPLPGLPPALPEPPGILAPQPPDVGSSDPASMVGPSQGRSPSYAS
notes: human FGF21, mature polypeptide (NM_019113); also called L194A; source: HEK293-EBNA1, transiently transfected, purified (protein A); not shown: Fc (human), N-terminal, kept
B8: Fc-FGF21, 192D to alanine (Fc fusion, human, UniProt Q9NSA1 29-209, looked up)
chain: HPIPDSSPLLQFGGQVRQRYLYTDDAQQTEAHLEIREDGTVGGAADQSPESLLQLKALKPGVIQILGVKTSRFLCQRPDGALYGSLHFDPEACSFRELLLEDGYNVYQSEAHGLPLHLPGNKSPHRDPAPRGPARFLPLPGLPPALPEPPGILAPQPPDVGSSAPLSMVGPSQGRSPSYAS
notes: human FGF21, mature polypeptide (NM_019113); also called D192A; source: HEK293-EBNA1, transiently transfected, purified (protein A); not shown: Fc (human), N-terminal, kept
B9: Fc-FGF21, 194L to arginine (Fc fusion, human, UniProt Q9NSA1 29-209, looked up)
chain: HPIPDSSPLLQFGGQVRQRYLYTDDAQQTEAHLEIREDGTVGGAADQSPESLLQLKALKPGVIQILGVKTSRFLCQRPDGALYGSLHFDPEACSFRELLLEDGYNVYQSEAHGLPLHLPGNKSPHRDPAPRGPARFLPLPGLPPALPEPPGILAPQPPDVGSSDPRSMVGPSQGRSPSYAS
notes: human FGF21, mature polypeptide (NM_019113); also called L194R; source: HEK293-EBNA1, transiently transfected, purified (protein A); not shown: Fc (human), N-terminal, kept
B10: Fc-FGF21, 193P to arginine (Fc fusion, human, UniProt Q9NSA1 29-209, looked up)
chain: HPIPDSSPLLQFGGQVRQRYLYTDDAQQTEAHLEIREDGTVGGAADQSPESLLQLKALKPGVIQILGVKTSRFLCQRPDGALYGSLHFDPEACSFRELLLEDGYNVYQSEAHGLPLHLPGNKSPHRDPAPRGPARFLPLPGLPPALPEPPGILAPQPPDVGSSDRLSMVGPSQGRSPSYAS
notes: human FGF21, mature polypeptide (NM_019113); also called P193R; source: HEK293-EBNA1, transiently transfected, purified (protein A); not shown: Fc (human), N-terminal, kept

The first test deals with T1, human β-Klotho extracellular domain …. Briefly: BLI; Octet RED; biotinylated β-Klotho ECD 6×His (10 µg/mL) loaded on streptavidin biosensors; FGF21 or Fc-FGF21 associated 5 min, dissociated 5 min in kinetics buffer; 1:1 binding model. Particulars: both partners purified. On the technique in general: Biolayer interferometry detects binding as a change in optical thickness at a sensor tip.
For the molecule B1, the “fold increase in affinity over native FGF21” value was 4 fold.

The target is the same in another test. As to the kind of experiment: ELISA; solid-phase binding assay: β-Klotho (500 ng/mL) captured from CHO-EBNA1 conditioned media by plate-coated mouse anti-human β-Klotho antibody; biotinylated FGF21 titrated, 1.5 h room temperature; streptavidin-HRP; three-parameter logistic fit. Particulars: one partner purified. A general note: ELISA stands for enzyme-linked immunosorbent assay.
With B2, a half-maximal response (EC50) required 3.98 nM.

A further test shares this target. Briefly: ELISA; solid-phase binding assay: WT β-Klotho captured from CHO-EBNA1 conditioned media by plate-coated anti-β-Klotho antibody; purified Fc-FGF21 titrated, 1.5 h room temperature; detected with anti-human IgG Fc-HRP. Particulars: one partner purified.
On to B3, for which the “fold increase in EC50 compared to WT” value is above 100 fold.

B4: the “fold increase in EC50 compared to WT” value is above 100 fold.

Turning to B5, the “fold increase in EC50 compared to WT” value is above 100 fold.

On to B6, for which the “fold increase in EC50 compared to WT” value was above 100 fold.

For the molecule B7, the “fold increase in EC50 compared to WT” value was above 100 fold.

In the case of B8, the “fold increase in EC50 compared to WT” value was above 100 fold.

Consider B9, for which the “fold increase in EC50 compared to WT” value is above 100 fold.

Take B10: the “fold increase in EC50 compared to WT” value was above 100 fold.

These data come from paper PMC6056499, “A systematic dissection of sequence elements determining β-Klotho and FGF interaction and signaling” (Scientific Reports, 2018).
